Results reported in patent US20250090677A1 (MULTITUDE THERAPEUTICS, published 2025).
Residue numbers refer to the chain shown, from its start. One block for each binder: values may come before it.

Key:
[1] = target: T1, CDH6 on the cell surface of OVCAR-3 cells (human ovarian cancer cells) (human, UniProt P55285 54-790); assay: flow cytometry (FACS) on OVCAR-3 cells, antibody titration, labelled secondary antibody, MFI
T1 construct: whole, on cells; also called CDH6-positive human ovarian cancer cell line OVCAR-3
T1 sequence (looked up): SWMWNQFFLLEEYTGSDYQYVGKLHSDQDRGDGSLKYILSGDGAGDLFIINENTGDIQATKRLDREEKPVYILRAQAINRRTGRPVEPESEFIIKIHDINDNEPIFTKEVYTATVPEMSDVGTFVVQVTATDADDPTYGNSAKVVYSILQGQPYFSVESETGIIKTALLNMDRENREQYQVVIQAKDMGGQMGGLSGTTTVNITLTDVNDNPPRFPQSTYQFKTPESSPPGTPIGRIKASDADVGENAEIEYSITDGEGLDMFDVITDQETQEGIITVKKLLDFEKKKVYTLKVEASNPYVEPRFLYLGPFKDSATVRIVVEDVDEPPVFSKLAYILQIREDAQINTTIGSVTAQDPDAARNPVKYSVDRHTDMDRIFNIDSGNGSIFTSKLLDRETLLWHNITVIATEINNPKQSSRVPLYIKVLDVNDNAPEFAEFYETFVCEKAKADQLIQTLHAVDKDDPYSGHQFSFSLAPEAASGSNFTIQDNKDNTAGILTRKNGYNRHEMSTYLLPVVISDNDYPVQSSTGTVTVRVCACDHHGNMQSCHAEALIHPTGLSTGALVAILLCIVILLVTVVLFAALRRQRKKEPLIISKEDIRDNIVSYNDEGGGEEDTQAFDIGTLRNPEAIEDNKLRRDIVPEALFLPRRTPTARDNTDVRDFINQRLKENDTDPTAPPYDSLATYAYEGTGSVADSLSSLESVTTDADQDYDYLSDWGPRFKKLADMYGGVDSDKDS

[2] = target: T2, recombinant protein CDH6 (UniProt P55285 54-615); assay: ELISA, CDH6 coated; antibody 6.25 ng/mL
T2 construct: also called CDH6 recombinant protein; CDH6 antigen
T2 sequence (looked up): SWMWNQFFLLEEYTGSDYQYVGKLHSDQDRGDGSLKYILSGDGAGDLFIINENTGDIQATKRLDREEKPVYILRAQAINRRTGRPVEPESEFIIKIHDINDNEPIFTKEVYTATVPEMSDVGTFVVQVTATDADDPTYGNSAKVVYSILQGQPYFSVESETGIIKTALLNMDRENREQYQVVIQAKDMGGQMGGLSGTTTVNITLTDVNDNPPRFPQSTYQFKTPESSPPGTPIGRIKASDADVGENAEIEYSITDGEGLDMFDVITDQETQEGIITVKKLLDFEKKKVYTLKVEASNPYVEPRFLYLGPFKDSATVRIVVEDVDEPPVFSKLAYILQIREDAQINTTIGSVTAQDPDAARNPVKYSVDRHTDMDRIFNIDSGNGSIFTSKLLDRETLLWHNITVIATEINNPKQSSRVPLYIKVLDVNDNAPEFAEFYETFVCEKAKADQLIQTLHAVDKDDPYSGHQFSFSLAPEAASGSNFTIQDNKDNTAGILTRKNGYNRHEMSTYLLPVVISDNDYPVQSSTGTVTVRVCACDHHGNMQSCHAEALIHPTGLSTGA
Procedure: (§1) The recombinant protein CDH6 was coated on ELISA plates at 1 μg/mL overnight at 4° C.; after being washed with PBST, the plate was added with 10% fetal bovine serum, and the mixture was blocked at 37° C. for 1 h; the plate was added with 13 monoclonal antibodies of CDH6 with different dilutions (0.1 ng/mL to 100 ng/mL), and the mixture was reacted at 37° C. for 1 h; after being washed with PBST, the plate was added with horseradish peroxidase-labeled goat anti-human IgG secondary antibody (Goat anti Mouse (HRP), Thermo Fisher Scientific), and the mixture was reacted at 37° C. for 30 min; after the plate was repeatedly washed with PBST 5 times, the remaining droplets on the absorbent paper were patted as much as possible; each well of the plate was added with 100 μL of TMB (eBioscience) and placed in the dark at room temperature (20±5° C.) for 1.5 min; each well of the plate was added with 100 μL of 2 N H₂SO₄ stop buffer for stopping substrate reaction, OD values at 450 nm were read using a microplate reader, and the binding ability of the antibody to the target antigen CDH6 was analyzed.

[3] = target: T2, recombinant protein CDH6; assay: ELISA, CDH6 coated; antibody 0.20 ng/mL
Procedure: as §1

[4] = target: T2, recombinant protein CDH6; assay: ELISA, CDH6 coated; antibody 0.78 ng/mL
Procedure: as §1

[5] = target: T2, recombinant protein CDH6; assay: ELISA, CDH6 coated; antibody 100 ng/mL
Procedure: as §1

[6] = target: T2, recombinant protein CDH6; assay: ELISA, CDH6 coated; antibody 3.13 ng/mL
Procedure: as §1

[7] = target: T2, recombinant protein CDH6; assay: ELISA, CDH6 coated; antibody 0.39 ng/mL
Procedure: as §1

[8] = target: T2, recombinant protein CDH6; assay: ELISA, CDH6 coated; antibody 50 ng/mL
Procedure: as §1

[9] = target: T2, recombinant protein CDH6; assay: ELISA, CDH6 coated; antibody 0.10 ng/mL
Procedure: as §1

[10] = target: T2, recombinant protein CDH6; assay: ELISA, CDH6 coated; antibody 12.5 ng/mL
Procedure: as §1

[11] = target: T2, recombinant protein CDH6; assay: ELISA, CDH6 coated; antibody 25 ng/mL
Procedure: as §1

[12] = target: T2, recombinant protein CDH6; assay: ELISA, CDH6 coated at 1 ug/mL
Procedure: as §1

[13] = target: T2, recombinant protein CDH6; assay: ELISA, CDH6 coated; antibody 1.56 ng/mL
Procedure: as §1

B1: CL069463-H1L1 (antibody, human IgG1, kappa, V domains shown)
VH: EVQLVESGGGLVQPSGSLKLSCAASGFTFNTYALTWVRQASGKGLEWVGRIKSKNKDYETYYADSVKDRFTISRDDSISTLYLQMNSLKTEDTALYYCVRQNWNYFDYWGQGTMLTVSS
VL: DIQMTQSPSSLSASVGQRVTITCRASENIYYSLAWYQQKPGKPPRLLIYNANSLKDGVPSRFSGSGSGTQYTMTITSMQPEDFATYYCQQAYDVPPTFGGGTKLEIKR
notes: Humanized IgG1/kappa
EC50 (read off the curve) [1]: ~4 nM

B2: CL069463 antibody (antibody, V domains shown)
VH: B1 VH with S15K, S41P, D75N, I78Q, T80L, S87N, L95I, M114T
VL: DIQMTQSPASLAASVGETVTITCRASENIYYSLAWYQQRQGKSPQLLIYNANSLKDGVPSRFSGSGSGTQYSMKINSMQPEDTATYFCQQAYDVPPTFGGGTKLEIK
notes: Mouse monoclonal antibody from hybridoma, purified from ascites with Protein A/G; also called #13; No. 13
OD450 [2]: 0.975 OD450
OD450 [3]: 0.086 OD450
OD450 [4]: 0.211 OD450
OD450 [5]: 2.62 OD450
OD450 [6]: 0.596 OD450
OD450 [7]: 0.139 OD450
OD450 [8]: 2.32 OD450
OD450 [9]: 0.073 OD450
OD450 [10]: 1.7 OD450
OD450 [11]: 1.8 OD450
sensitivity [12]: ≤ 3.12 ng/mL
OD450 [13]: 0.374 OD450

B3: CL069439 antibody (antibody, V domains shown)
VH: EVQLQQSGTELVRTGASVKISCKASGYSFTGYYIHWIKQSHGESLEWIGYISCFNGDTSYNQNFKDRATFNVDTSSSTAYMQFISLTSEDSAVYYCVRGRYGNFNYFDYWGQGTTLTVSS
VL: DIVLTQSPASLAVSLGQRATISCRASESVEFYGTSLMQWFQQKPGHPPQLLIYATSNVDSGVPARFSASGSGTDFSLNIHPVEEADIAMYFCQQSRRIPWTFGGGTKLEIK
notes: Mouse monoclonal antibody from hybridoma, purified from ascites with Protein A/G; also called #16; No. 16
OD450 [2]: 2.82 OD450
OD450 [3]: 0.181 OD450
OD450 [4]: 0.647 OD450
OD450 [5]: 3.9 OD450
OD450 [6]: 1.87 OD450
OD450 [7]: 0.255 OD450
OD450 [8]: 3.89 OD450
OD450 [9]: 0.106 OD450
OD450 [10]: 3.62 OD450
OD450 [11]: 3.69 OD450
sensitivity [12]: ≤ 1 ng/mL
OD450 [13]: 1.11 OD450

B4: CL069066 antibody (antibody, V domains shown)
VH: EVKLLESGGGLVQPGGSLKLSCAASGFDFSRYWMTWVRQAPGKGLEWIGEINPDSSTINYTPSLKDKFIISRDNAKNTLYLQMNKVTSEDTALYYCTRRPHYYGYFDSWGQGTTLTVSS
VL: DIVLTQSPASLAVSLGQRATISCRASESVEYYGTTLMQWYQQKPGQPPQLLIYAGSNVESGVPARFSGSGSGTEFSLNIHPVEEDDIGMYFCQQSRKVPWTFGGGTKLEIK
notes: Mouse monoclonal antibody from hybridoma, purified from ascites with Protein A/G; also called #4; No. 4
OD450 [2]: 0.577 OD450
OD450 [3]: 0.05 OD450
OD450 [4]: 0.094 OD450
OD450 [5]: 2.38 OD450
OD450 [6]: 0.3 OD450
OD450 [7]: 0.063 OD450
OD450 [8]: 2.11 OD450
OD450 [9]: 0.048 OD450
OD450 [10]: 1.08 OD450
OD450 [11]: 1.69 OD450
sensitivity [12]: ≤ 6.3 ng/mL
OD450 [13]: 0.17 OD450

B6: CL069463-H2L2 (antibody, human IgG1, kappa)
heavy: not shown
light: DIQMTQSPSSLSASVGDRVTITCRASENIYYSLAWYQQKPGKAPKLLIYNANSLKDGVPSRFSGSGSGTDYTMTISSMQPEDFATYYCQQAYDVPPTFGGGTKVEIKRTVAAPSVFIFPPSDEQLKSGTASVVCLLNNFYPREAKVQWKVDNALQSGNSQESVTEQDSKDSTYSLSSTLTLSKADYEKHKVYACEVTHQGLSSPVTKSFNRGEC
notes: Humanized IgG1/kappa
EC50 (read off the curve) [1]: ~4 nM

Now from value to binder:

OD450 [2]: 1.01 OD450
OD450 [3]: 0.101 OD450
OD450 [4]: 0.305 OD450
OD450 [5]: 1.41 OD450
OD450 [6]: 0.831 OD450
OD450 [7]: 0.165 OD450
OD450 [8]: 1.33 OD450
OD450 [9]: 0.069 OD450
OD450 [10]: 1.27 OD450
OD450 [11]: 1.18 OD450
sensitivity [12]: ≤ 1.56 ng/mL
OD450 [13]: 0.577 OD450
B5: CL069707 antibody (antibody, V domains shown)
VH: EVHLVESGGGLVQPKGSLKLSCVASGFTFTTYAMNWVRQAPGKGLEWVARIRIKNNNYATYYADSVTDRFTISRDDSQSMLYLQMNNLKTEDTAMYYCVRPDYGNYGLAYWGQGTLVTVSA
VL: EIVLTQSPTTMAASPGEKITITCSASSSISSHYLHWYQQKPGFSPKLLIYRSFYLASGVPLRFTGSGSGTSYSLTIGTMEAEDVATYYCQQDIVPLTFGAGTKLELK
notes: Mouse monoclonal antibody from hybridoma, purified from ascites with Protein A/G; also called #23; No. 23

EC50 (read off the curve) [1]: ~3 nM
B7: CL069463-H2L3 (antibody, human IgG1, kappa)
heavy: not shown
light: B6 light with D17E
notes: Humanized IgG1/kappa
